Measurements: article PMC12496174

Biological target: BASP1 (brain acid soluble protein 1, CAP23, NAP22) (UniProt Q91XV3)
Experiment: peptide affinity column, brain lysate, LC-MS/MS
Settings: reference: non-phospho peptide …; sites S351

- binding against the reference: stronger
Substance: PLPPR3 (phospholipid-phosphatase-related protein 3) (from UniProt Q7TPB0) pS351 peptide LKRApSVDVDLLA
